This is an account of results in patent US20100216196A1 (AJINOMOTO, published 2010).

This assay addresses T1, DsbA protein of Escherichia coli (protein encoded by the dsbA gene) (Escherichia coli, UniProt P0AEG4 20-208, free cysteine thiols labelled with AMS (4-acetamido-4'-maleimidyl-stilbene-2,2'-disulfonate) before electrophoresis).
T1 construct: Endogenous periplasmic DsbA of E. coli BW25113, detected in cell lysates; also called disulfide oxidoreductase
T1 sequence: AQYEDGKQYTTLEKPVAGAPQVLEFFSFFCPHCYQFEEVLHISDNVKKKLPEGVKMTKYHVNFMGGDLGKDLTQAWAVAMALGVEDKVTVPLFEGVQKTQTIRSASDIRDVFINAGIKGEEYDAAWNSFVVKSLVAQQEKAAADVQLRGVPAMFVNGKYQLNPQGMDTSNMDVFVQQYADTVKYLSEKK
As to the kind of experiment: AMS modification, non-reducing SDS-PAGE and Western blot with anti-DsbA serum; wild-type E. coli BW25113 exposed to 5 mM cysteine.

B1: DsbB (enzyme)
chain: MLRFLNQCSQGRGAWLLMAFTALALELTALWFQHVMLLKPCVLCIYERCALFGVLGAALIGAIAPKTPLRYVAMVIWLYSAFRGVQLTYEHTMLQLYPSPFATCDFMVRFPEWLPLDKWVPQVFVASGDCAERQWDFLGLEMPQWLLGIFIAYLIVAVLVVISQPFKAKKRDLFGR
notes: Endogenous protein in the wild-type strain, seen only as the DsbA-DsbB complex band on the anti-DsbA Western blot; also called intracellular membrane protein DsbB
With B1, the binding result is recorded as “binds”.
